Results taken from the supplement of paper PMC11246515.
± gives the standard deviation of the averaged measurements.

Assay: total protein half-life in vivo (active degradation + dilution); higher = more stable protein
[1] = E. coli NCM3722 delta-clpP delta-lon delta-hslV, growth: N-lim chemostat, doubling time 6 h
[2] = E. coli NCM3722 delta-clpP, growth: N-lim chemostat, doubling time 6 h
[3] = E. coli NCM3722 delta-hslV, growth: N-lim chemostat, doubling time 6 h
[4] = E. coli NCM3722 delta-lon, growth: N-lim chemostat, doubling time 6 h
[5] = E. coli NCM3722 delta-smpB, growth: N-lim chemostat, doubling time 6 h
[6] = wild type E. coli NCM3722, growth: C-lim chemostat, doubling time 3 h
[7] = wild type E. coli NCM3722, growth: C-lim chemostat, doubling time 6 h
[8] = wild type E. coli NCM3722, growth: C-lim chemostat, doubling time 12 h
[9] = wild type E. coli NCM3722, growth: N-lim chemostat, doubling time 6 h
[10] = wild type E. coli NCM3722, growth: N-lim chemostat, doubling time 12 h
[11] = wild type E. coli NCM3722, growth: P-lim chemostat, doubling time 6 h
[12] = wild type E. coli NCM3722, growth: P-lim chemostat, doubling time 12 h

Sequence | total protein half-life in vivo [1] [h] | total protein half-life in vivo [2] [h] | total protein half-life in vivo [3] [h] | total protein half-life in vivo [4] [h] | total protein half-life in vivo [5] [h] | total protein half-life in vivo [6] [h] | total protein half-life in vivo [7] [h] | total protein half-life in vivo [8] [h] | total protein half-life in vivo [9] [h] | total protein half-life in vivo [10] [h] | total protein half-life in vivo [11] [h] | total protein half-life in vivo [12] [h]
MDAMKYNDLRDFLTLLEQQGELKRITLPVDPHLEITEIADRTLRAGGPALLFENPKGYSMPVLCNLFGTPKRVAMGMGQEDVSALREVGKLLAFLKEPEPPKGFRDLFDKLPQFKQVLNMPTKRLRGAPCQQKIVSGDDVDLNRIPIMTCWPEDAAPLITWGLTVTRGPHKERQNLGIYRQQLIGKNKLIMRWLSHRGGALDYQEWCAAHPGERFPVSVALGADPATILGAVTPVPDTLSEYAFAGLLRGTKTEVVKCISNDLEVPASAEIVLEGYIEQGETAPEGPYGDHTGYYNEVDSFPVFTVTHITQREDAIYHSTYTGRPPDEPAVLGVALNEVFVPILQKQFPEIVDFYLPPEGCSYRLAVVTIKKQYAGHAKRVMMGVWSFLRQFMYTKFVIVCDDDVNARDWNDVIWAITTRMDPARDTVLVENTPIDYLDFASPVSGLGSKMGLDATNKWPGETQREWGRPIKKDPDVVAHIDAIWDELAIFNNGKSA [P0AAB4] | 6.47 ± 0.5 | 6.032 ± 0.049 | 6.88 ± 0.78 | 6.27 ± 0.71 | 6.38 ± 0.54 | 2.98 ± 0.37 | 6.29 ± 0.21 | 11.3 ± 0.45 | 5.82 ± 0.23 | 11.4 ± 0.32 | 5.99 ± 0.093 | 12.5 ± 0.62
MKPFLRWCFVATALTLAGCSNTSWRKSEVLAVPLQPTLQQEVILARMEQILASRALTDDERAQLLYERGVLYDSLGLRALARNDFSQALAIRPDMPEVFNYLGIYLTQAGNFDAAYEAFDSVLELDPTYNYAHLNRGIALYYGGRDKLAQDDLLAFYQDDPNDPFRSLWLYLAEQKLDEKQAKEVLKQHFEKSDKEQWGWNIVEFYLGNISEQTLMERLKADATDNTSLAEHLSETNFYLGKYYLSLGDLDSATALFKLAVANNVHNFVEHRYALLELSLLGQDQDDLAESDQQ [P0AFB1] | 6.43 ± 0.4 | 6.3 ± 0.2 | – | 6.621 ± 0.019 | 6.66 ± 1.2 | 3.15 ± 0.24 | 5.9 ± 0.35 | 11.3 ± 0.48 | 6.12 ± 0.22 | 13.5 ± 2 | 7.56 ± 0.19 | 13.1 ± 0.29
MMKKPVVIGLAVVVLAAVVAGGYWWYQSRQDNGLTLYGNVDIRTVNLSFRVGGRVESLAVDEGDAIKAGQVLGELDHKPYEIALMQAKAGVSVAQAQYDLMLAGYRNEEIAQAAAAVKQAQAAYDYAQNFYNRQQGLWKSRTISANDLENARSSRDQAQATLKSAQDKLRQYRSGNREQDIAQAKASLEQAQAQLAQAELNLQDSTLIAPSDGTLLTRAVEPGTVLNEGGTVFTVSLTRPVWVRAYVDERNLDQAQPGRKVLLYTDGRPDKPYHGQIGFVSPTAEFTPKTVETPDLRTDLVYRLRIVVTDADDALRQGMPVTVQFGDEAGHE | 6.76 ± 0.87 | – | 6.75 ± 0.14 | 6.47 ± 0.38 | 6.26 ± 0.13 | 3.39 ± 0.38 | – | 11.2 ± 1.9 | 6.2 ± 0.46 | 13.54 ± 0.12 | 6.02 ± 0.17 | 14.2 ± 0.91
MMKMRWLSAAVMLTLYTSSSWAFSIDDVAKQAQSLAGKGYETPKSNLPSVFRDMKYADYQQIQFNHDKAYWNNLKTPFKLEFYHQGMYFDTPVKINEVTATAVKRIKYSPDYFTFGDVQHDKDTVKDLGFAGFKVLYPINSKDKNDEIVSMLGASYFRVIGAGQVYGLSARGLAIDTALPSGEEFPRFKEFWIERPKPTDKRLTIYALLDSPRATGAYKFVVMPGRDTVVDVQSKIYLRDKVGKLGVAPLTSMFLFGPNQPSPANNYRPELHDSNGLSIHAGNGEWIWRPLNNPKHLAVSSFSMENPQGFGLLQRGRDFSRFEDLDDRYDLRPSAWVTPKGEWGKGSVELVEIPTNDETNDNIVAYWTPDQLPEPGKEMNFKYTITFSRDEDKLHAPDNAWVQQTRRSTGDVKQSNLIRQPDGTIAFVVDFTGAEMKKLPEDTPVTAQTSIGDNGEIVESTVRYNPVTKGWRLVMRVKVKDAKKTTEMRAALVNADQTLSETWSYQLPANE | 6.373 ± 0.046 | – | 6.94 ± 1 | 6.34 ± 0.17 | 5.91 ± 0.29 | 3.25 ± 0.11 | 6.12 ± 0.11 | 12.4 ± 0.37 | 6.43 ± 0.094 | 12.6 ± 0.2 | 6.37 ± 0.39 | 12.9 ± 0.14
MSKVLVLKSSILAGYSQSNQLSDYFVEQWREKHSADEITVRDLAANPIPVLDGELVGALRPSDAPLTPRQQEALALSDELIAELKAHDVIVIAAPMYNFNISTQLKNYFDLVARAGVTFRYTENGPEGLVTGKKAIVITSRGGIHKDGPTDLVTPYLSTFLGFIGITDVKFVFAEGIAYGPEMAAKAQSDAKAAIDSIVSA | 2.22 ± 0.11 | 1.48 ± 0.24 | 1.34 ± 0.044 | 1.5 ± 0.044 | 1.49 ± 0.15 | 2.81 ± 0.096 | 3.39 ± 0.25 | 5.43 ± 0.92 | 1.52 ± 0.16 | 1.85 ± 0.14 | 4.25 ± 0.14 | 6.31 ± 0.4
MTLPKIKQVRAWFTGGATAEKGAGGGDYHDQGANHWIDDHIATPMSKYRDYEQSRQSFGINVLGTLVVEVEAENGQTGFAVSTAGEMGCFIVEKHLNRFIEGKCVSDIKLIHDQMLSATLYYSGSGGLVMNTISCVDLALWDLFGKVVGLPVYKLLGGAVRDEIQFYATGARPDLAKEMGFIGGKMPTHWGPHDGDAGIRKDAAMVADMREKCGEDFWLMLDCWMSQDVNYATKLAHACAPYNLKWIEECLPPQQYESYRELKRNAPVGMMVTSGEHHGTLQSFRTLSETGIDIMQPDVGWCGGLTTLVEIAAIAKSRGQLVVPHGSSVYSHHAVITFTNTPFSEFLMTSPDCSTMRPQFDPILLNEPVPVNGRIHKSVLDKPGFGVELNRDCNLKRPYSH | – | – | – | – | – | 2.53 ± 0.29 | 3.97 ± 0.25 | 7.51 ± 1.1 | > 8 | – | – | 9.69
